The values below come from article PMC2957832 (Biochemical and biophysical research communications, 2010).

The series concerns the molecule itself. The experiment in a line: SEC.

B1: Purβ core tryptic fragment (residues 29–305) (domain or fragment, mouse, UniProt O35295 29-305, looked up)
chain: GGGGGGGGPGGEQETQELASKRLDIQNKRFYLDVKQNAKGRFLKIAEVGAGGSKSRLTLSMAVAAEFRDSLGDFIEHYAQLGPSSPEQLAAGAEEGGGPRRALKSEFLVRENRKYYLDLKENQRGRFLRIRQTVNRGGGGFGGGPGPGGLQSGQTIALPAQGLIEFRDALAKLIDDYGGDEDELAGGPGGGAGGPGGGLYGELPEGTSITVDSKRFFFDVGCNKYGVFLRVSEVKPSYRNAITVPFKAWGKFGGAFCRYADEMKEIQERQRDKLYER
Turning to B1, the “stoichiometry N” value amounted to 2.

As usually defined, the stoichiometry N is a count of units in the complex or per binding partner.
